Assays:
[1] = molecular target: T1, 人CD3ε (TCR/CD3复合物，Jurkat细胞) (human, UniProt P07766 23-207); assay: flow cytometry on Jurkat cells, domain within anti-TA x anti-CD3ε constructs
T1 construct: whole, on cells; The other chains of the TCR/CD3 complex are present on the cells; also called CD3(+) Jurkat

[2] = molecular target: T2, 人PSMA ECD-AFH (可溶性人PSMA ECD，重组二聚体PSMA ECD) (human, UniProt Q04609 44-750); assay: SPR Biacore T200, scFv-Fc captured by anti-human IgG, dimeric PSMA ECD as analyte
T2 construct: Expressed in HEK-293, IMAC then SEC; the dimer fraction was used; also called TSC033; HuPSMA-AFH
T2 sequence (Q04609 other isoform, or with tags, fused parts or gaps): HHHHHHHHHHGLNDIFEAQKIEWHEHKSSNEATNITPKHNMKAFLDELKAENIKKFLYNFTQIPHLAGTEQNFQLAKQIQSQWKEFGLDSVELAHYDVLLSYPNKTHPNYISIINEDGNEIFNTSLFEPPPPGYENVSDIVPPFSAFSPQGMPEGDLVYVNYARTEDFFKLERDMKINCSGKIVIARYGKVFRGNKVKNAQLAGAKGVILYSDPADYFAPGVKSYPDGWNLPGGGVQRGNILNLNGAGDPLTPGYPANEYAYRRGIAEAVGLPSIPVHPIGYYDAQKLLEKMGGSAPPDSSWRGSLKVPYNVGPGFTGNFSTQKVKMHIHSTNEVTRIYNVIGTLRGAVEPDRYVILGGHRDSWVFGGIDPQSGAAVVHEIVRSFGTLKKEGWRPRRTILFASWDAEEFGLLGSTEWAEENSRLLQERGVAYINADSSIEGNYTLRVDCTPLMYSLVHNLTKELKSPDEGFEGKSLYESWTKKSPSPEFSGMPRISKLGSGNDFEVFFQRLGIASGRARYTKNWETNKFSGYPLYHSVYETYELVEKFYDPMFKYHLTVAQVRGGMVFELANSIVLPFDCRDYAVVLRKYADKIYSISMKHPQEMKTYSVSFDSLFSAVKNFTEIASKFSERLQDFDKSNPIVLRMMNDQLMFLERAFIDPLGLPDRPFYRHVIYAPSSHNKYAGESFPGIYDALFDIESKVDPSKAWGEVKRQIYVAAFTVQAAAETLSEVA

[3] = molecular target: T2, 人PSMA ECD-AFH (可溶性人PSMA ECD，重组二聚体PSMA …); assay: SPR Biacore, dimeric PSMA ECD
全长食蟹猴PSMA = molecular target: T3, 全长食蟹猴PSMA (cynomolgus monkey, UniProt Q04609 1-750 (human entry)); assay: MSD live-cell ELISA on CHOK1SV/cynoPSMA cells
T3 construct: On transfected CHO cells; also called TSC308; cynoPSMA
T3 chain: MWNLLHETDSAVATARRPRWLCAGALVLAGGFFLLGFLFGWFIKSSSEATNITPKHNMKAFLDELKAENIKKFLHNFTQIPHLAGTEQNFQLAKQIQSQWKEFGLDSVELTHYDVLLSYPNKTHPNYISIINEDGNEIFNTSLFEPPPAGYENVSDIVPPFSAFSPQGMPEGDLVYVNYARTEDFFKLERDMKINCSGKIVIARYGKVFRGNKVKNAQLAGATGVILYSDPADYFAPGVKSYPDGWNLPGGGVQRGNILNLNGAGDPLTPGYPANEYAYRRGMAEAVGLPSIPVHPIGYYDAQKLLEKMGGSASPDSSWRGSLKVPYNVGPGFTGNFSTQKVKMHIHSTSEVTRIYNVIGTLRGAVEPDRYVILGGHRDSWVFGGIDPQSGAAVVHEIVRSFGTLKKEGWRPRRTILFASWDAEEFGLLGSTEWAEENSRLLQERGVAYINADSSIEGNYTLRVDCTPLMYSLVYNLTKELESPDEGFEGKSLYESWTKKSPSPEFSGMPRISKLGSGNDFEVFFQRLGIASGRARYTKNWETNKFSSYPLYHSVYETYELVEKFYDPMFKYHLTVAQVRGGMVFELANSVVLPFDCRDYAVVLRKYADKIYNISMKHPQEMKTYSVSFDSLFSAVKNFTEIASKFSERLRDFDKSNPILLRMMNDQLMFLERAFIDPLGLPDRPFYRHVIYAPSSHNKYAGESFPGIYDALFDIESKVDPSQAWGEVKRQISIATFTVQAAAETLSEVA

T1 sequence (P07766 23-207): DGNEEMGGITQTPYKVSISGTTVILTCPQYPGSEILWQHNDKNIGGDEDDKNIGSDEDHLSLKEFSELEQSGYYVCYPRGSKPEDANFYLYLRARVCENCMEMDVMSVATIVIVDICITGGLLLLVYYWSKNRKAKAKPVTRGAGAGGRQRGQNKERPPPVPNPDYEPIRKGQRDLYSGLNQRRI

B1: CRIS7H16 (scFv, V domains shown)
VH: QVQLVQSGAEVKKPGASVKVSCKASGYTFTRSTMHWVRQAPGQGLEWIGYINPSSAYTNYAQKFQGRVTLTADKSTSTAYMELSSLRSEDTAVYYCASPQVHYDYNGFPYWGQGTLVTVSS
VL: DIQMTQSPSSLSASVGDRVTITCRASSSVSYMNWYQQKPGKAPKRWIYDSSKLASGVPSRFSGSGSGTDFTLTISSLQPEDFATYYCQQWSRNPPTFGQGTKVEIK
notes: also called H16 CD3结合结构域
binding result [1]: binds

B2: PSMA01012 (Fc fusion)
VH: QVQLVQSGAEVKKPGASVKVSCKASGYTFTDYYMHWVRQAPGQGLEWMGYFNPYNDYTRYAQKFQGRVTMTRDTSISTAYMELSSLRSDDTAVYYCARSDGYYDAMDYWGQGTTVTVSS
VL: DIQMTQSPSAMSASVGDRVTITCRASKSISKYLAWFQQKPGKVPKLRIHSGSTLQSGVPSRFSGSGSGTEFTLTISSLQPEDFATYYCQQHIEYPWTFGQGTKVEIKR
notes: Monospecific bivalent scFv-Fc, scFv in VL-VH orientation; also called TSC189 (结合结构域); 亲本构建体PSMA01012
binding result [2]: binds

B3: PSMA01023 (Fc fusion)
chain: DIQMTQSPSTLSASVGDRVTITCRASKSISKYLAWYQQKPGKAPKLLIHSGSSLESGVPSRFSGSGSGTEFTLTISSLQPDDFATYYCQQHIEYPWTFGQGTKVEIKGGGGSGGGGSGGGGSGGGGSQVQLVQSGAEVKKPGASVKVSCKASGYTFTDYYMHWVRQAPGQGLEWMGYFNPYNDYTRYAQKFQGRVTMTRDTSTSTVYMELSSLRSEDTAVYYCARSDGYYDAMDYWGQGTTVTVSSSEPKSSDKTHTCPPCPAPEAAGAPSVFLFPPKPKDTLMISRTPEVTCVVVDVSHEDPEVKFNWYVDGVEVHNAKTKPREEQYNSTYRVVSVLTVLHQDWLNGKEYKCAVSNKALPAPIEKTISKAKGQPREPQVYTLPPSRDELTKNQVSLTCLVKGFYPSDIAVEWESNGQPENNYKTTPPVLDSDGSFFLYSKLTVDKSRWQQGNVFSCSVMHEALHNHYTQKSLSLSPGK
notes: Monospecific bivalent anti-PSMA scFv-Fc, scFv in VL-VH orientation
Kd [3]: 40 nM
binding result (全长食蟹猴PSMA): binds

Source: patent publication CN117242096A (APTEVO RES AND DEVELOPMENT LIMITED, dated 2023)
